In patent US20130052176, “APTAMER FOR NGF AND USE THEREOF” (SHIONOGI & CO., LTD, published 2013):

Legend:
Details in all cases: tags: amine-coupled to CM5 chip in SPR; soluble in cell assays; chain copies: 2
[1] = biological target: T1, NGF (nerve growth factor) (human, UniProt P01138 P01138:122-241); test: cell_activity; neurite outgrowth, NGF 0.38 nM; SPR binding; TF-1 IC50 0.175 nM
Protocol: (§1) The neurite outgrowth inhibitory activity of the aptamer obtained in Example 1 was evaluated by using Neuroscreen-1 cell, which is a subclone of PC-12 cells.
(§2) The cells (2500 cells per well) were cultured for one day in an RPMI-1640 medium containing 2.5% horse serum and 1.25% fetal bovine serum in a 96 well flat-bottom plate coated with collagen type IV. […] Two days later, the cytoplasm and nuclei were stained using Cellomics Neurite Outgrowth Kit (manufactured by Thermo Scientific), and neurite length per cell was measured by Cellomics ArrayScan VTI (manufactured by Thermo Scientific). With the neurite length per cell obtained by the addition of NGF alone as inhibitory activity 0%, and that of the cell obtained by NGF free culture for 2 days as inhibitory activity 100%, the inhibitory activity of the aptamer was calculated from the neurite length per cell obtained by culturing with the addition of NGF and the aptamer in mixture. When the inhibitory activity was 0% or below, ‘0%’ is indicated.

[2] = biological target: T1, NGF (nerve growth factor); test: cell_activity; neurite outgrowth, NGF 0.38 nM; SPR binding; TF-1 IC50 0.108 nM
Protocol: as §1, §2

[3] = biological target: T1, NGF (nerve growth factor); test: cell_activity; neurite outgrowth, NGF 0.38 nM; SPR binding; TF-1 IC50 0.211 nM
Protocol: as §1, §2

[4] = biological target: T1, NGF (nerve growth factor); test: cell_activity; neurite outgrowth, NGF 0.38 nM; SPR binding; TF-1 IC50 0.083 nM
Protocol: as §1, §2

[5] = biological target: T1, NGF (nerve growth factor); test: cell_activity; neurite outgrowth, NGF 0.38 nM; SPR binding; TF-1 IC50 0.072 nM
Protocol: as §1, §2

[6] = biological target: T1, NGF (nerve growth factor); test: cell_activity; neurite outgrowth, NGF 0.38 nM; SPR binding; TF-1 IC50 0.128 nM
Protocol: as §1, §2

[7] = biological target: T1, NGF (nerve growth factor); test: cell_activity; neurite outgrowth, NGF 0.38 nM; SPR binding; TF-1 IC50 0.101 nM
Protocol: as §1, §2

[8] = biological target: T1, NGF (nerve growth factor); test: cell_activity; neurite outgrowth, NGF 1.1 nM; SPR binding; TF-1 IC50 3.2 nM
Protocol: as §1, §2

[9] = biological target: T1, NGF (nerve growth factor); test: cell_activity; neurite outgrowth, NGF 1.1 nM; SPR binding; TF-1 IC50 5.7 nM
Protocol: as §1, §2

[10] = biological target: T1, NGF (nerve growth factor); test: cell_activity; neurite outgrowth, NGF 0.38 nM; SPR binding; TF-1 IC50 1.0 nM
Protocol: as §1, §2

[11] = biological target: T1, NGF (nerve growth factor); test: cell_activity; neurite outgrowth, NGF 0.38 nM; SPR binding; TF-1 IC50 0.154 nM
Protocol: as §1, §2

[12] = biological target: T1, NGF (nerve growth factor); test: cell_activity; neurite outgrowth, NGF 1.1 nM; SPR binding; blocks NGF-TrkA; TF-1 IC50 20.4 nM
Protocol: as §1, §2

[13] = biological target: T1, NGF (nerve growth factor); test: cell_activity; neurite outgrowth, NGF 1.1 nM; SPR binding; TF-1 IC50 3.2 nM; remark: listed apart in the source
[14] = biological target: T1, NGF (nerve growth factor); test: cell_activity; neurite outgrowth, NGF 1.1 nM; SPR binding; TF-1 IC50 11.1 nM
[15] = biological target: T1, NGF (nerve growth factor); test: cell_activity; neurite outgrowth, NGF 1.1 nM; SPR binding; TF-1 IC50 1.4 nM
Protocol: as §1, §2

[16] = biological target: T1, NGF (nerve growth factor); test: cell_activity; neurite outgrowth, NGF 1.1 nM; SPR binding; TF-1 IC50 1.0 nM

T1 sequence (P01138 122-241, one chain of several): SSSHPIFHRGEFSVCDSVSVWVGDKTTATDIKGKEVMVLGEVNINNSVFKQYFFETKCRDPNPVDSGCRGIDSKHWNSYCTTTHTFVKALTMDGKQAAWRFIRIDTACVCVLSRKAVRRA

B1: aptamer ID 26(21) (mixed)
RNA: GGGAGACUCGCCAGAGUUGAAAGAAACCCAAAUAAGUGUGCGCAC
modifications: 2'-F pyrimidines except dC at 7; 2'-OMe purines except 2'-OH at 3,19,20,26; 5' idT and 3' idT
For B1, which IC50 [1] is on record?
The IC50 was 0.283 nM.

B2: aptamer ID 26(51) (ssRNA)
RNA: B1 RNA
modifications: 2'-F pyrimidines except 2'-OMe at 7,8,9,11,12,17,18,33,37,45; 2'-OMe purines except 2'-OH at 3,19,20; 5' idT and 3' idT
Which IC50 [2] does the source give for B2 here?
The IC50 was 0.191 nM.

B3: aptamer ID 26(31) (ssRNA)
RNA: B1 RNA
modifications: 2'-F pyrimidines except 2'-OMe at 7; 2'-OMe purines except 2'-OH at 3,19,20,26; 5' idT and 3' idT
B3 was tested. Which IC50 [3] did it give?
Its IC50 is 0.3 nM.

B4: aptamer ID 26(50) (mixed)
RNA: B1 RNA
modifications: 2'-F pyrimidines except 2'-OMe at 7,11,12,17,33,45, dT at 8,37 and dC at 9,29; 2'-OMe purines except 2'-OH at 3,19,20,26; 5' idT and 3' idT
How did the IC50 [4] turn out when B4 was run?
Its IC50 is 0.046 nM.

B5: aptamer ID 26(52) (ssRNA)
RNA: B1 RNA
modifications: 2'-F pyrimidines except 2'-OMe at 7,8,9,11,12,17,18,33,37,39,45; 2'-OMe purines except 2'-OH at 3,19,20,26; 5' idT and 3' idT
B5 was tested. Which IC50 [5] did it give?
The IC50 was 0.101 nM.

B6: aptamer ID 26(43) (mixed)
RNA: B1 RNA
modifications: 2'-F pyrimidines except dC at 7,9,11,12,29,45 and dT at 8,17,33,37; 2'-OMe purines except 2'-OH at 3,19,20,26; 5' idT and 3' idT
B6 was tested. Which IC50 [6] did it give?
Its IC50 is 0.073 nM.

B7: aptamer ID 26(59) (ssRNA)
RNA: B1 RNA
modifications: 2'-F pyrimidines except 2'-OMe at 7,8,9,11,12,17,18,33,37,45; 2'-OMe purines except 2'-F at g3 and 2'-OH at 19,20,26; 5' idT and 3' idT
B7 was tested. Which IC50 [7] did it give?
The IC50 was 0.17 nM.

B8: aptamer ID 27 (ssRNA)
RNA: GGGAGACUCGCAGAGUUGAAAGAAACCCAAAUAAAGUGUGCGCACA
modifications: 2'-F at all pyrimidines
With B8 as the binder, how does the IC50 [8] read?
Its IC50 is less than 1 nM.

B9: aptamer ID 22 (ssRNA)
RNA: GGGAGACUCGCCAGAGUUGAAAGAAACCCAAAUAAAGAUGUGCGCAUCA
modifications: 2'-F at all pyrimidines
For B9, which IC50 [9] is on record?
The IC50 was 1.3 nM.

B10: aptamer ID 29 (ssRNA)
RNA: GGGAGACUCGCCAGAGUUGAAAGAAACCCAAAUAGUGUGCGCAC
modifications: 2'-F at all pyrimidines
Which IC50 [10] does the source give for B10 here?
Its IC50 is less than 0.3 nM.

B11: aptamer ID 29(1) (ssRNA)
RNA: B10 RNA
modifications: 2'-F pyrimidines; 2'-OMe purines except 2'-OH at 3,19,20; 5' idT and 3' idT
B11 was tested. Which IC50 [11] did it give?
Its IC50 is 0.058 nM.

B12: aptamer ID 1 (ssRNA)
RNA: GGGAGAACUUCGACCAGAAGUUUGAAAGAAACCCAAAUUAAAGUGAACAGUAUGUGCGCAUACA
modifications: 2'-F at all pyrimidines
How did the IC50 [12] turn out when B12 was run?
The IC50 was 2.1 nM.

B13: aptamer ID 19 (ssRNA)
RNA: GGGAGAACUUCGCCAGAAGUUUGAAAGAAACCCAAAUAAAGAUGUGCGCAUC
modifications: 2'-F at all pyrimidines
Which IC50 [13] does the source give for B13 here?
The IC50 was 1.3 nM.

B14: aptamer ID 10 (ssRNA)
RNA: GGGAGAACUUCGCCAGAAGUUUGAAAGAAACCCAAAUUAAAAAGUAUGUGCGCAUACA
modifications: 2'-F at all pyrimidines
B14 was tested. Which IC50 [14] did it give?
Its IC50 is less than 3 nM.

B15: aptamer ID 28 (ssRNA)
RNA: GGGAGACUCGCAGAGUUGAAAGAAACCCAAAUAAGUGUGCGCAC
modifications: 2'-F at all pyrimidines
Which IC50 [15] does the source give for B15 here?
The IC50 was less than 1 nM.

B16: aptamer ID 21 (ssRNA)
RNA: GGGAGAACUUCGCCAGAAGUUUGAAAGAAACCCAAAUAAAGAGUGCGCUCA
modifications: 2'-F at all pyrimidines
How did the IC50 [16] turn out when B16 was run?
Its IC50 is 1.1 nM.
